Experimental data: patent US20040214771

Molecular target: T1, recombinant purified full length SRF (pET-15b, histidine tag, expressed in BL21)
T1 chain: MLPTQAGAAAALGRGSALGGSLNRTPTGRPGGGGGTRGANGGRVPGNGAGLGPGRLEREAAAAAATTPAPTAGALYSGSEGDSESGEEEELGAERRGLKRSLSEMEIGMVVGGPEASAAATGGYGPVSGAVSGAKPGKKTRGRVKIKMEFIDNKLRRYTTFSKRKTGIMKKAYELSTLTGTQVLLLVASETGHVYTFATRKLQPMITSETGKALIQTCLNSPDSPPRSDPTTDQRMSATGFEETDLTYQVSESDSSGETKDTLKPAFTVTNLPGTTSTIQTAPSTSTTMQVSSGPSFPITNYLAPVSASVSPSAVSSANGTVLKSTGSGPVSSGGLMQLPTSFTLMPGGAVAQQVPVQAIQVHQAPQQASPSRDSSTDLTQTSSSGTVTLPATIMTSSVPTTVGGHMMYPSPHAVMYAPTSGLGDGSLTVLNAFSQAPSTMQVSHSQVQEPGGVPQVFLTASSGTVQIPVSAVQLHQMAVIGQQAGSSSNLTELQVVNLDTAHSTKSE

B1: active recombinant human caspase 3 (BD PharMingen) (protein)
chain: SGISLDNSYKMDYPEMGLCIIINNKNFHKSTGMTSRSGTDVDAANLRETFRNLKYEVRNKNDLTREEIVELMRDVSKEDHSKRSSFVCVLLSHGEEGIIFGTNGPVDLKKITNFFRGDRCRSLTGKPKLFIIQACRGTELDCGIETDSGVDDDMACHKIPVEADFLYAYSTAPGYYSWRNSKDGSWFIQSLCAMLKQYADKLEFMHILTRVNRKVATEFESFSFDATFHAKKQIPCIVSMLTKELYFYH
Q: B1 was tested. Which “in vitro cleavage of SRF, read by Western blot” value did it give?
A: Its value is “Caspase 3 cleaved SRF in a time-dependent manner”.
